Data on 94 variants can be found in the supplement of paper PMC10567573.

Sequences and labels used below:
B1: PRPH (parent)
chain: RTFGPPPSLSPGAFSYSSSSRFSS
B2: ALDH8A1 (parent)
chain: WSSRSPQERSRVLNQVADLLEQSL
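Note: lentivirally expressed fusions sorted by FACS into six bins by GFP to DsRed ratio, PSI derived from sequencing read proportions per bin multiplied by bin number.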

The variants in the first series derive from B1. Kind of series: protein stability index of a GFP-peptide fusion (GPS, HEK-293T) (PSI 1-6); higher = more stable. To be noted: c terminus: a fixed tail appended.
With RTFGPPPSLSPGAFSYSSSSRFGS, the protein stability index came out at 2.6.

RTFGPPPSLSPGAFSYSSSSRFTS: the protein stability index was found to be 3.23.

On to RTFGPPPSLSPGAFSYSSSSRFCS, for which the protein stability index came to 3.02.

With RTFGPPPSLSPGAFSYSSSSRFFS, the protein stability index came to 3.09.

For the variant RTFGPPPSLSPGAFSYSSSSRFKS, the protein stability index was 3.48.

RTFGPPPSLSPGAFSYSSSSRFMS: the protein stability index came out at 2.88.

For RTFGPPPSLSPGAFSYSSSSRFLS, the protein stability index amounted to 2.93.

Turning to RTFGPPPSLSPGAFSYSSSSRFAS, the protein stability index turned out to be 3.17.

Regarding RTFGPPPSLSPGAFSYSSSSRFPS, the protein stability index worked out at 3.59.

RTFGPPPSLSPGAFSYSSSSRFYS: the protein stability index was 2.66.

Turning to RTFGPPPSLSPGAFSYSSSSRFRS, the protein stability index worked out at 3.52.

For RTFGPPPSLSPGAFSYSSSSRFQS, the protein stability index turned out to be 3.47.

As to RTFGPPPSLSPGAFSYSSSSRFNS, the protein stability index was 3.36.

Turning to RTFGPPPSLSPGAFSYSSSSRFES, the protein stability index is 2.79.

As to RTFGPPPSLSPGAFSYSSSSRFHS, the protein stability index was 3.02.

As to RTFGPPPSLSPGAFSYSSSSRFVS, the protein stability index worked out at 2.85.

For the variant RTFGPPPSLSPGAFSYSSSSRFIS, the protein stability index amounted to 2.52.

Regarding RTFGPPPSLSPGAFSYSSSSRFDS, the protein stability index was 2.9.

As for RTFGPPPSLSPGAFSYSSSSRFSW, the protein stability index stood at 2.82.

With RTFGPPPSLSPGAFSYSSSSRFSD, the protein stability index came to 3.19.

On to RTFGPPPSLSPGAFSYSSSSRFSM, for which the protein stability index worked out at 2.55.

Take RTFGPPPSLSPGAFSYSSSSRFST: the protein stability index was found to be 3.23.

Regarding RTFGPPPSLSPGAFSYSSSSRFSN, the protein stability index turned out to be 3.44.

Consider RTFGPPPSLSPGAFSYSSSSRFSY, for which the protein stability index came out at 2.46.

With RTFGPPPSLSPGAFSYSSSSRFSQ, the protein stability index was determined as 3.31.

For the variant RTFGPPPSLSPGAFSYSSSSRFSE, the protein stability index came out at 3.38.

For the variant RTFGPPPSLSPGAFSYSSSSRFSC, the protein stability index was found to be 2.83.

With RTFGPPPSLSPGAFSYSSSSRFSR, the protein stability index was found to be 3.85.

In the case of RTFGPPPSLSPGAFSYSSSSRFSH, the protein stability index was determined as 3.55.

In the case of RTFGPPPSLSPGAFSYSSSSRFSF, the protein stability index was determined as 1.96.

As to RTFGPPPSLSPGAFSYSSSSRFSK, the protein stability index was determined as 3.89.

On to RTFGPPPSLSPGAFSYSSSSRFSL, for which the protein stability index is 2.27.

Regarding RTFGPPPSLSPGAFSYSSSSRFSI, the protein stability index worked out at 3.01.

RTFGPPPSLSPGAFSYSSSSRFSV: the protein stability index turned out to be 2.3.

With RTFGPPPSLSPGAFSYSSSSRVSS, the protein stability index came out at 3.8.

As for RTFGPPPSLSPGAFSYSSSSRSSS, the protein stability index was 4.18.

On to RTFGPPPSLSPGAFSYSSSSRYSS, for which the protein stability index turned out to be 3.22.

In the case of RTFGPPPSLSPGAFSYSSSSRTSS, the protein stability index turned out to be 4.17.

Turning to RTFGPPPSLSPGAFSYSSSSRWSS, the protein stability index is 2.83.

On to RTFGPPPSLSPGAFSYSSSSRQSS, for which the protein stability index came out at 3.78.

Another series covers variants of B2. Described as above. To be noted: c terminus: a fixed tail appended.
As to WSSRSPQERSRVLNQVADLLQQSL, the protein stability index turned out to be 2.38.

For WSSRSPQERSRVLNQVADLLCQSL, the protein stability index is 2.47.

Regarding WSSRSPQERSRVLNQVADLLDQSL, the protein stability index came out at 2.58.

As for WSSRSPQERSRVLNQVADLLNQSL, the protein stability index is 2.52.

Regarding WSSRSPQERSRVLNQVADLLTQSL, the protein stability index was found to be 2.33.

For the variant WSSRSPQERSRVLNQVADLLKQSL, the protein stability index was 1.61.

Take WSSRSPQERSRVLNQVADLLRQSL: the protein stability index came to 2.26.

For WSSRSPQERSRVLNQVADLLSQSL, the protein stability index stood at 2.27.

WSSRSPQERSRVLNQVADLLYQSL: the protein stability index came to 1.71.

Consider WSSRSPQERSRVLNQVADLLETSL, for which the protein stability index is 2.53.

With WSSRSPQERSRVLNQVADLLEPSL, the protein stability index is 3.31.

In the case of WSSRSPQERSRVLNQVADLLEFSL, the protein stability index amounted to 1.93.

With WSSRSPQERSRVLNQVADLLEASL, the protein stability index is 2.22.

Turning to WSSRSPQERSRVLNQVADLLEWSL, the protein stability index is 1.95.

Regarding WSSRSPQERSRVLNQVADLLEHSL, the protein stability index worked out at 3.34.

Turning to WSSRSPQERSRVLNQVADLLEVSL, the protein stability index is 1.91.

Take ISSRSPQERSRVLNQVADLLEQSL: the protein stability index was found to be 2.69.

MSSRSPQERSRVLNQVADLLEQSL: the protein stability index turned out to be 3.06.

On to ESSRSPQERSRVLNQVADLLEQSL, for which the protein stability index turned out to be 3.54.

Turning to WSSRSPQERSRVLNQVADLWEQSL, the protein stability index amounted to 2.82.

WSSRSPQERSRVLNQVADLMEQSL: the protein stability index stood at 3.44.

As to WSSRSPQERSRVLNQVADLNEQSL, the protein stability index is 4.14.

On to WSSRSPQERSRVLNQVADLPEQSL, for which the protein stability index amounted to 4.33.

With WSSRSPQERSRVLNQVADLSEQSL, the protein stability index stood at 3.96.

As for WSSRSPNERSRVLNQVADLLEQSL, the protein stability index came out at 2.81.

Regarding WSSRSPVERSRVLNQVADLLEQSL, the protein stability index worked out at 2.53.

Consider WSSRSPEERSRVLNQVADLLEQSL, for which the protein stability index was determined as 2.76.

Regarding WSSRSPDERSRVLNQVADLLEQSL, the protein stability index is 2.96.

As for WSSRSPLERSRVLNQVADLLEQSL, the protein stability index stood at 1.91.

With WSSRSPIERSRVLNQVADLLEQSL, the protein stability index turned out to be 2.42.

Take WSSRSPPERSRVLNQVADLLEQSL: the protein stability index was found to be 2.9.

As for WSSRSPAERSRVLNQVADLLEQSL, the protein stability index worked out at 2.38.

Consider WSSRSPYERSRVLNQVADLLEQSL, for which the protein stability index worked out at 1.79.

For the variant WSSRSPSERSRVLNQVADLLEQSL, the protein stability index was found to be 2.21.

As for WSSRSPRERSRVLNQVADLLEQSL, the protein stability index was determined as 2.62.

WSSRVPQERSRVLNQVADLLEQSL: the protein stability index turned out to be 2.81.

As for WSSRQPQERSRVLNQVADLLEQSL, the protein stability index is 3.01.

For WSSREPQERSRVLNQVADLLEQSL, the protein stability index is 2.88.

Turning to WSSRSPQERSRVLNQVARLLEQSL, the protein stability index was determined as 2.34.

Regarding WSSRSPQERSRVLNQVANLLEQSL, the protein stability index is 2.22.

Regarding WSSRSPQERSRVLNQVAHLLEQSL, the protein stability index worked out at 2.2.

In the case of WSSRSPQERRRVLNQVADLLEQSL, the protein stability index stood at 2.95.

Turning to WSSRSPQERTRVLNQVADLLEQSL, the protein stability index amounted to 1.81.

With WSSRSPQERARVLNQVADLLEQSL, the protein stability index was 2.41.

As for WSSRSPQERNRVLNQVADLLEQSL, the protein stability index is 2.29.

WSSRSPQERQRVLNQVADLLEQSL: the protein stability index worked out at 2.32.

As to WSSRSPQERERVLNQVADLLEQSL, the protein stability index stood at 3.11.

For WSSRSPQERKRVLNQVADLLEQSL, the protein stability index was 1.99.

Turning to WSSRSPQERHRVLNQVADLLEQSL, the protein stability index turned out to be 2.58.

Turning to WSSTSPQERSRVLNQVADLLEQSL, the protein stability index is 2.62.

Regarding WSSDSPQERSRVLNQVADLLEQSL, the protein stability index was found to be 2.79.

Turning to WSSESPQERSRVLNQVADLLEQSL, the protein stability index is 2.97.

For WSSYSPQERSRVLNQVADLLEQSL, the protein stability index is 2.09.

Regarding WSSGSPQERSRVLNQVADLLEQSL, the protein stability index was 2.52.
